Article PMC6555819, “Comprehensive study of nuclear receptor DNA binding provides a revised framework for understanding receptor specificity”
Changes are numbered by the printed parent chain.

B1: NRC3_random_hg19_328_o1 (dsDNA)
DNA 1: GCACTTAGAGCCCAGGAGCTTGAGGTCGCAGCTACTGCGATTGACAGCGTAGAATGAAGG
DNA 2: CCTTCATTCTACGCTGTCAATCGCAGTAGCTGCGACCTCAAGCTCCTGGGCTCTAAGTGC
B2: NRC3_random_hg19_218_o1 (dsDNA)
DNA 1: GCTTAGTCATGAAGTCTTTGCCCATGCCTGTGTCCTGCGATTGACAGCGTAGAATGAAGG
DNA 2: CCTTCATTCTACGCTGTCAATCGCAGGACACAGGCATGGGCAAAGACTTCATGACTAAGC
B3: NRC3_wobSeed136_DR5_G11C_o1 (dsDNA)
DNA 1: GCTAGCCTAGCTCATTCAGGGGCCAGTATAGAAAGCGCGATTGACAGCGTAGAATGAAGG
DNA 2: CCTTCATTCTACGCTGTCAATCGCGCTTTCTATACTGGCCCCTGAATGAGCTAGGCTAGC
B4: NRC3_random_hg19_317_o1 (dsDNA)
DNA 1: GCGCCTCCTTCTTTCCTTTGTCATCTGGTGGTGGGAGCGATTGACAGCGTAGAATGAAGG
DNA 2: CCTTCATTCTACGCTGTCAATCGCTCCCACCACCAGATGACAAAGGAAAGAAGGAGGCGC
B5: NRC3_random_hg19_270_o1 (dsDNA)
DNA 1: GCTATAGGAAGCAGGATGTTTCTTGAGAGTGTGGCCGCGATTGACAGCGTAGAATGAAGG
DNA 2: CCTTCATTCTACGCTGTCAATCGCGGCCACACTCTCAAGAAACATCCTGCTTCCTATAGC
B6: NRC3_wobSeed114_DR4_A14C_o1 (dsDNA)
DNA 1: GCAATACAGGGTCCTCGTAGGCCAGAGTACGCACAGGCGATTGACAGCGTAGAATGAAGG
DNA 2: CCTTCATTCTACGCTGTCAATCGCCTGTGCGTACTCTGGCCTACGAGGACCCTGTATTGC
B7: NRC3_random_hg19_313_o1 (dsDNA)
DNA 1: GCACTACATAAGTAATCATCTCCCTCTGCAACTGGGGCGATTGACAGCGTAGAATGAAGG
DNA 2: CCTTCATTCTACGCTGTCAATCGCCCCAGTTGCAGAGGGAGATGATTACTTATGTAGTGC
B8: NRC3_random_hg19_416_o1 (dsDNA)
DNA 1: GCCCTAGTTGGACCTGTGGGAAGGGCACTACTGTTCGCGATTGACAGCGTAGAATGAAGG
DNA 2: CCTTCATTCTACGCTGTCAATCGCGAACAGTAGTGCCCTTCCCACAGGTCCAACTAGGGC
B9: NRC3_wobSeed6_DR0_G17T_o1 (dsDNA)
DNA 1: GCCCTAGCAGGCCAGGTTCACTCAAGCATTTCGCTTGCGATTGACAGCGTAGAATGAAGG
DNA 2: CCTTCATTCTACGCTGTCAATCGCAAGCGAAATGCTTGAGTGAACCTGGCCTGCTAGGGC
B10: NRC3_wobSeed58_DR2_G10T_o1 (dsDNA)
DNA 1: GCATCGAAATGTCGTGAGGTGAGTATACAGAAAGGCGCGATTGACAGCGTAGAATGAAGG
DNA 2: CCTTCATTCTACGCTGTCAATCGCGCCTTTCTGTATACTCACCTCACGACATTTCGATGC
B11: NRC3_wobSeed58_DR2_G10C_o1 (dsDNA)
DNA 1: B10 DNA 1 with T10C
DNA 2: B10 DNA 2 with A51G
B12: NRC3_wobSeed110_DR4_A9T_o1 (dsDNA)
DNA 1: GCTCTGCTTGGTCAACGATGGTCAGCTAATCTGCTAGCGATTGACAGCGTAGAATGAAGG
DNA 2: CCTTCATTCTACGCTGTCAATCGCTAGCAGATTAGCTGACCATCGTTGACCAAGCAGAGC
B13: NRC3_wobSeed110_DR4_G10T_o1 (dsDNA)
DNA 1: B12 DNA 1 with T9A, G10T
DNA 2: B12 DNA 2 with C51A, A52T
B14: NRC3_random_hg19_51_o1 (dsDNA)
DNA 1: GCGAGAAAGCTGAACTGTCACTCTTTGCTGATGATGGCGATTGACAGCGTAGAATGAAGG
DNA 2: CCTTCATTCTACGCTGTCAATCGCCATCATCAGCAAAGAGTGACAGTTCAGCTTTCTCGC
B15: NRC3_wobSeed138_DR5_A8G_o1 (dsDNA)
DNA 1: GCGATACGGGGTCAGCTAGAGGCCAGAGTATGGAAAGCGATTGACAGCGTAGAATGAAGG
DNA 2: CCTTCATTCTACGCTGTCAATCGCTTTCCATACTCTGGCCTCTAGCTGACCCCGTATCGC
B16: NRC3_random_hg19_253_o1 (dsDNA)
DNA 1: GCTAGCCCTCTCAGAGGACAGAGCTAGGATAGCATGGCGATTGACAGCGTAGAATGAAGG
DNA 2: CCTTCATTCTACGCTGTCAATCGCCATGCTATCCTAGCTCTGTCCTCTGAGAGGGCTAGC
B17: NRC3_random_hg19_410_o1 (dsDNA)
DNA 1: GCTAACGAATGATCTTTCTAATGTGTTGTTGAATTCGCGATTGACAGCGTAGAATGAAGG
DNA 2: CCTTCATTCTACGCTGTCAATCGCGAATTCAACAACACATTAGAAAGATCATTCGTTAGC
B18: NRC3_random_hg19_229_o1 (dsDNA)
DNA 1: GCTAAACTGTATCCACTTACCTTTCTCAGAACCTTTGCGATTGACAGCGTAGAATGAAGG
DNA 2: CCTTCATTCTACGCTGTCAATCGCAAAGGTTCTGAGAAAGGTAAGTGGATACAGTTTAGC
B19: NRC3_random_hg19_20_o1 (dsDNA)
DNA 1: GCTACACTCTCCCAAGACTAAACCAGGAAGAAGTTGGCGATTGACAGCGTAGAATGAAGG
DNA 2: CCTTCATTCTACGCTGTCAATCGCCAACTTCTTCCTGGTTTAGTCTTGGGAGAGTGTAGC
B20: NRC3_random_hg19_1_o1 (dsDNA)
DNA 1: GCGTGTTTGATTCTCATTGTCACCTTCTCTAGGCCTGCGATTGACAGCGTAGAATGAAGG
DNA 2: CCTTCATTCTACGCTGTCAATCGCAGGCCTAGAGAAGGTGACAATGAGAATCAAACACGC
B21: NRC3_random_hg19_175_o1 (dsDNA)
DNA 1: GCGAGGAAGCTAAGCACTGCAAGGAAGAGGGTCAGAGCGATTGACAGCGTAGAATGAAGG
DNA 2: CCTTCATTCTACGCTGTCAATCGCTCTGACCCTCTTCCTTGCAGTGCTTAGCTTCCTCGC
B22: NRC3_random_hg19_168_o1 (dsDNA)
DNA 1: GCACAGAAATGAAATGGGCTATAGAGCTCATCTTCTGCGATTGACAGCGTAGAATGAAGG
DNA 2: CCTTCATTCTACGCTGTCAATCGCAGAAGATGAGCTCTATAGCCCATTTCATTTCTGTGC
B23: NRC3_random_hg19_14_o1 (dsDNA)
DNA 1: GCGCAGGGACTATGTGCATTAGGCCAGTTCCTCATGGCGATTGACAGCGTAGAATGAAGG
DNA 2: CCTTCATTCTACGCTGTCAATCGCCATGAGGAACTGGCCTAATGCACATAGTCCCTGCGC
B24: NRC3_random_hg19_224_o1 (dsDNA)
DNA 1: GCCTTCCTAACTGAATCACCTCATCAACAGCTAAACGCGATTGACAGCGTAGAATGAAGG
DNA 2: CCTTCATTCTACGCTGTCAATCGCGTTTAGCTGTTGATGAGGTGATTCAGTTAGGAAGGC
B25: NRC3_random_hg19_159_o1 (dsDNA)
DNA 1: GCGGTTCAACATTCAGCAAACATTGGATGATAGTTTGCGATTGACAGCGTAGAATGAAGG
DNA 2: CCTTCATTCTACGCTGTCAATCGCAAACTATCATCCAATGTTTGCTGAATGTTGAACCGC
B26: NRC3_random_hg19_231_o1 (dsDNA)
DNA 1: GCATTACAAAGGTGCTGGAAAGGCTTGGGAGGAGCAGCGATTGACAGCGTAGAATGAAGG
DNA 2: CCTTCATTCTACGCTGTCAATCGCTGCTCCTCCCAAGCCTTTCCAGCACCTTTGTAATGC
B27: NRC3_random_hg19_31_o1 (dsDNA)
DNA 1: GCCAAGAGGACTCGCACAGTGGTGCATGGCAGCTTGGCGATTGACAGCGTAGAATGAAGG
DNA 2: CCTTCATTCTACGCTGTCAATCGCCAAGCTGCCATGCACCACTGTGCGAGTCCTCTTGGC
B28: NRC3_wobSeed82_DR3_G14C_o1 (dsDNA)
DNA 1: GCATCGAAAGGTCCACGAGGTGAGTATACACCGTTTGCGATTGACAGCGTAGAATGAAGG
DNA 2: CCTTCATTCTACGCTGTCAATCGCAAACGGTGTATACTCACCTCGTGGACCTTTCGATGC
B29: NRC3_wobSeed46_DR1_A16C_o1 (dsDNA)
DNA 1: GCTTACCAAGGTGAACGGTCGTTGATGCACGCCTTGGCGATTGACAGCGTAGAATGAAGG
DNA 2: CCTTCATTCTACGCTGTCAATCGCCAAGGCGTGCATCAACGACCGTTCACCTTGGTAAGC
B30: NRC3_wobSeed45_DR1_A9C_o1 (dsDNA)
DNA 1: GCTGTCAACGTTCAAAGGTAACGTAAGTATCCACACGCGATTGACAGCGTAGAATGAAGG
DNA 2: CCTTCATTCTACGCTGTCAATCGCGTGTGGATACTTACGTTACCTTTGAACGTTGACAGC

molecular target: RARg:RXRa (Homo sapiens, UniProt P13631;P19793 full;full); assay: no ligand; PBM; 270 nM : 90 nM RXRa; PBS pH 7.4, 2% milk, 0.02% Triton X-100, 1 mM DTT, BSA, 0.4 mg/ml salmon testes DNA; conditions: tags: His kept;His cleaved; copies: 1;1; label: surface-attached array probe
Procedure, shortened: (§1)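 Custom Agilent 4×180K protein-binding microarrays carried double-stranded probes. Their 34-nt variable regions held direct-repeat seeds, single-nucleotide variants, half-site ablations and random human genomic background sequences. Arrays were incubated 1 h with ligand-free nuclear receptor dimers in PBS pH 7.4, 2% milk, 0.02% Triton X-100, 1 mM DTT, 0.2 mg/mL BSA and 0.4 mg/ml salmon testes DNA. Antibodies against each partner (one per run) detected binding, and scanned fluorescence was regression-normalized. Binding z-scores use random background probes as reference.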

Sequence of RARg:RXRa (P13631 whole entry, chain 1 of 2): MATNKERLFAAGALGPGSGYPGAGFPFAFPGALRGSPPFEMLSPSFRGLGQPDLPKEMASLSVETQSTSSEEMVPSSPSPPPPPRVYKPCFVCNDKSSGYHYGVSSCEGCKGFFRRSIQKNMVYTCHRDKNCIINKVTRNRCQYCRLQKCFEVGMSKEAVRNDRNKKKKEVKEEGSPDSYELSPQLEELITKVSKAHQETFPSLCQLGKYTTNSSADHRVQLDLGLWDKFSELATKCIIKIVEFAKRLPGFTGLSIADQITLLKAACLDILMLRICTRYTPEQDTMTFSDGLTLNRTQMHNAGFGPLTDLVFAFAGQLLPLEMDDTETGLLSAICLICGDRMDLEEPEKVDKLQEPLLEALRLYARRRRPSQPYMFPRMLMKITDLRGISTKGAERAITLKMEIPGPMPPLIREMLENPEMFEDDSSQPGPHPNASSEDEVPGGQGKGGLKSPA
Sequence of RARg:RXRa (P19793 whole entry, chain 2 of 2): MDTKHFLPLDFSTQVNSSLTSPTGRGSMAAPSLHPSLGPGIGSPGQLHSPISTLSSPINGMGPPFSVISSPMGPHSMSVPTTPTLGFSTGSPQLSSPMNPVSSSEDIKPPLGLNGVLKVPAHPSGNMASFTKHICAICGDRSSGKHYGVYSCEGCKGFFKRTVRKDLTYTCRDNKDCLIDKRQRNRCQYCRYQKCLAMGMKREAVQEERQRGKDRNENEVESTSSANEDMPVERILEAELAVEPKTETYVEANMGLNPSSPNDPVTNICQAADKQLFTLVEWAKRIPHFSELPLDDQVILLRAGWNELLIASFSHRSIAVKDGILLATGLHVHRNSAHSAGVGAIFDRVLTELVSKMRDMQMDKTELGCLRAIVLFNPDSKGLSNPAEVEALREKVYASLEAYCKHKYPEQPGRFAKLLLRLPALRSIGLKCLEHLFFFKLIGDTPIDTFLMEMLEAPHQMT

| Binder | binding signal |
| --- | --- |
| B1 | 0.09 PBM z-score against 500 random probes |
| B2 | -0.54 PBM z-score against 500 random probes |
| B3 | -0.31 PBM z-score against 500 random probes |
| B4 | -1.07 PBM z-score against 500 random probes |
| B5 | -0.4 PBM z-score against 500 random probes |
| B6 | 0.23 PBM z-score against 500 random probes |
| B7 | 0.18 PBM z-score against 500 random probes |
| B8 | -0.27 PBM z-score against 500 random probes |
| B9 | 0.25 PBM z-score against 500 random probes |
| B10 | 0.29 PBM z-score against 500 random probes |
| B11 | 0.27 PBM z-score against 500 random probes |
| B12 | 0.29 PBM z-score against 500 random probes |
| B13 | 0.22 PBM z-score against 500 random probes |
| B14 | 0.04 PBM z-score against 500 random probes |
| B15 | 7.98 PBM z-score against 500 random probes |
| B16 | -0.23 PBM z-score against 500 random probes |
| B17 | 0.07 PBM z-score against 500 random probes |
| B18 | 0.44 PBM z-score against 500 random probes |
| B19 | 0.15 PBM z-score against 500 random probes |
| B20 | 0.33 PBM z-score against 500 random probes |
| B21 | -0.07 PBM z-score against 500 random probes |
| B22 | -0.02 PBM z-score against 500 random probes |
| B23 | -0.69 PBM z-score against 500 random probes |
| B24 | 0.38 PBM z-score against 500 random probes |
| B25 | 0.49 PBM z-score against 500 random probes |
| B26 | -0.04 PBM z-score against 500 random probes |
| B27 | -0.25 PBM z-score against 500 random probes |

molecular target: FXR:RXRa (Homo sapiens, UniProt Q96RI1;P19793 full;full); assay: as above; conditions: tags: His kept;His cleaved; copies: 1;1; label: surface-attached array probe
Procedure, shortened: as §1

Sequence of FXR:RXRa (Q96RI1 whole entry, chain 1 of 2): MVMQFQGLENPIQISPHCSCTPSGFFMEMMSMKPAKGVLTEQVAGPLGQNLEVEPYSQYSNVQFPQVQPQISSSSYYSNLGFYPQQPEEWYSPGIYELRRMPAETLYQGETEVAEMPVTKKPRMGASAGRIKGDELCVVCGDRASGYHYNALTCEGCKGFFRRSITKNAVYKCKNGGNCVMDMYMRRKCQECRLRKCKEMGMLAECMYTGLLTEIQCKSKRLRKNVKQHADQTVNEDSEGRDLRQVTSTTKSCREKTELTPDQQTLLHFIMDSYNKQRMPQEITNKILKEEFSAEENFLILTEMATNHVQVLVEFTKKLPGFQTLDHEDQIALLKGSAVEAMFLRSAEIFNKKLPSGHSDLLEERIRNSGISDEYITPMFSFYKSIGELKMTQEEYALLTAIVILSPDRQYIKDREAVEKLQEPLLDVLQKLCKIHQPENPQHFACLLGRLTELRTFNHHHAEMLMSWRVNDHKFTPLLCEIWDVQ
Sequence of FXR:RXRa (P19793 whole entry, chain 2 of 2): as the sequence (P19793 whole entry, chain 2 of 2) above

| Binder | binding signal |
| --- | --- |
| B28 | 0.48 PBM z-score against 500 random probes |
| B29 | 0.48 PBM z-score against 500 random probes |
| B30 | 0.46 PBM z-score against 500 random probes |

molecular target: PPARa:RXRa (Homo sapiens, UniProt Q07869;P19793 full;full); assay: as above; conditions: tags: GST kept;His cleaved; copies: 1;1; label: surface-attached array probe
Procedure, shortened: as §1

Sequence of PPARa:RXRa (Q07869 whole entry, chain 1 of 2): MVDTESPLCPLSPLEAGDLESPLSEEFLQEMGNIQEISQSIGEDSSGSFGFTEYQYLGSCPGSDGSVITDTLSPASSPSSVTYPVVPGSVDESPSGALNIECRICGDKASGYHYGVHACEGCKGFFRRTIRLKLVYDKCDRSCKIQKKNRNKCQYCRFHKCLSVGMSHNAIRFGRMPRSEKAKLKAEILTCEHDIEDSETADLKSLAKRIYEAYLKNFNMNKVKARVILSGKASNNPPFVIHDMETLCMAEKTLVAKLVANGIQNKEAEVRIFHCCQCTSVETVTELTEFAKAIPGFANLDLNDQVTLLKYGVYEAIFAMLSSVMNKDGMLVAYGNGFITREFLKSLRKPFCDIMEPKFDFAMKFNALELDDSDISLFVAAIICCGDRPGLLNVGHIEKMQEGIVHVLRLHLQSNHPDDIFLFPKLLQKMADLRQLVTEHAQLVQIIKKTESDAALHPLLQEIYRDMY
Sequence of PPARa:RXRa (P19793 whole entry, chain 2 of 2): as the sequence (P19793 whole entry, chain 2 of 2) above

| Binder | binding signal |
| --- | --- |
| B4 | -0.11 PBM z-score against 500 random probes |
| B5 | -0.83 PBM z-score against 500 random probes |
| B15 | 6.77 PBM z-score against 500 random probes |
| B19 | 0.29 PBM z-score against 500 random probes |
| B23 | -1.96 PBM z-score against 500 random probes |
| B27 | -0.47 PBM z-score against 500 random probes |
